Laboratory results from article PMC10003557 (International Journal of Molecular Sciences, 2023).

Tests used:
[1] = biological target: T1, SARS-CoV-2 receptor-binding domain (RBD) wild-type (WT) (SARS-CoV-2 (Wuhan, WT), UniProt P0DTC2); experiment: cell-based or functional assay
[2] = biological target: T1, SARS-CoV-2 receptor-binding domain …; experiment: bead-based flow cytometry (iQue3) blocking assay; conditions: both partners purified
[3] = biological target: T2, biotinylated RBD protein (SPD-C82E9, Acro Biosystems) (SARS-CoV-2 (WT), UniProt P0DTC2); experiment: bead-based flow cytometry (iQue3, Qbeads) competition assay; conditions: both partners purified
T2 construct: also called Biotinylated RBD WT; RBD-Qbeads

[4] = biological target: T1, SARS-CoV-2 receptor-binding domain …; experiment: SPR; Biacore; antibodies captured on the chip (Protein A CM5 chip by the methods, anti-IgG antibody by the results), RBD WT flown over; 1:1 Langmuir fit; conditions: both partners purified
[5] = biological target: T1, SARS-CoV-2 receptor-binding domain …; experiment: ELISA; binding ELISA of purified hIgG1 on RBD; EC50; conditions: both partners purified
[6] = biological target: T2, biotinylated RBD protein (SPD-C82E9, …); experiment: bead-based flow cytometry (iQue3, Qbeads) competition assay; conditions: both partners purified; remark: listed apart in the source
[7] = biological target: T1, SARS-CoV-2 receptor-binding domain …; experiment: SPR; Biacore; antibodies captured on the chip (Protein A CM5 chip by the methods, anti-IgG antibody by the results), RBD WT flown over; 1:1 Langmuir fit; conditions: both partners purified; remark: listed apart in the source
[8] = biological target: T1, SARS-CoV-2 receptor-binding domain …; experiment: bead-based flow cytometry (iQue3) blocking assay; conditions: both partners purified; remark: listed apart in the source

| Binder | PRNT: authentic SARS-CoV-2 on Vero E6 cells, NC50; pair blocked: RBD with hACE-2 [1] [nM] | IC50 [2] [nM] | IC50 [3] [nM] | Kd [4] [nM] | koff [4] [s⁻¹] | kon [4] [M⁻¹ s⁻¹] | EC50 [5] [nM] | IC50 [6] [nM] | Kd [7] [nM] | koff [7] [s⁻¹] | kon [7] [M⁻¹ s⁻¹] | IC50 [8] [nM] |
| --- | --- | --- | --- | --- | --- | --- | --- | --- | --- | --- | --- | --- |
| P5A10-G2 (hIgG1) (antibody, V domains shown) VH: EVQLLESGGGLVQPGGSLRLSCAASGFTSSNTWMSWVRQAPGKGLEWVSGIDGRGGSTYYADSVKGRFTISRDNSKNTLYLQMNSLRAEDTAVYYCATDSSTQPWYFDLWGRGTLVTVSS VL: EIVLTQSPATLSLSPGERATLSCRASQSVSSNLAWYQQKPGQAPRLLIYDASNRATGIPARFSGSGSGTDFTLTISSLEPEDFAVYYCQQREREPITFGQGTKVEIK | 61.1 | 1.18 | 1.23 | 0.39 | 0.000578 | 1.49e+06 |  |  |  |  |  |  |
| P5A10 (hIgG1) (antibody, V domains shown) VH: EVQLLESGGGLVQPGGSLRLSCAASGFTFSSSAMSWVRQAPGKGLEWVSGIYGRGGSTYYADSVKGRFTISRDNSKNTLYLQMNSLRAEDTAVYYCATDSSTQPWYFDLWGRGTLVTVSS VL: EIVLTQSPATLSLSPGERATLSCRASQSVSSNLAWYQQKPGQAPRLLIYDASNRATGIPARFSGSGSGTDFTLTISSLEPEDFAVYYCQQREREPITFGQGTKVEIK |  |  |  |  |  |  | 16.9 | 2.34 | 28.8 | 0.00367 | 127000 |  |
| P5A10-G4 (hIgG1) (antibody, V domains shown) VH: EVQLLESGGGLVQPGGSLRLSCAASGFTFSSYWMSWVRQAPGKGLEWVSGISGSGRRAFGGSTYYADSVKGRFTISRDNSKNTLYLQMNSLRAEDTAVYYCATDSSTQPWYFDLWGRGTLVTVSS VL: EIVLTQSPATLSLSPGERATLSCRASQSVSSNLAWYQQKPGQAPRLLIYDASNRATGIPARFSGSGSGTDFTLTISSLEPEDFAVYYCQQREREPITFGQGTKVEIK | 10.4 | 0.78 | 0.12 | 0.14 | 0.000148 | 1.09e+06 |  |  |  |  |  |  |
| P5E1-A6 (hIgG1) (antibody, V domains shown) VH: EVQLLESGGGLVQPGGSLRLSCAASGFTFTSTAMSWVRQAPGKGLEWVSGIYGRGSTRYADSVKGRFTISRDNSKNTLYLQMNSLRAEDTAVYYCARGGSWFDPWGQGTLVTVSS VL: not shown | 43.9 | 0.61 | 0.06 | 0.89 | 0.000527 | 588000 |  |  |  |  |  |  |
| P5E1 (hIgG1) (antibody, V domains shown) VH: EVQLLESGGGLVQPGGSLRLSCAASGFTFSDSAMSWVRQAPGKGLEWVSGIYGRGGYTYYADSVKGRFTISRDNSKNTLYLQMNSLRAEDTAVYYCARGGSWFDPWGQGTLVTVSS VL: not shown |  |  |  |  |  |  | 0.97 | 2.15 | 27.1 | 0.00433 | 160000 | 2.63 |
